Each block holds one substance with its values, some of them ahead of it. Square brackets hold non-standard residues; d marks the D form. Ends that are not written are not given here. Phe(3-F) = N[C@@H](Cc1cccc(F)c1)C(=O)O; Phe(4-F) = N[C@@H](Cc1ccc(F)cc1)C(=O)O; Phg = N[C@H](C(=O)O)c1ccccc1; Tle = CC(C)(C)[C@H](N)C(=O)O; Nle = CCCC[C@H](N)C(=O)O; Nva = CCC[C@H](N)C(=O)O
Columns and labels:
Cyclin A = Cyclin A (Homo sapiens, UniProt P20248); experiment: Cyclin A binding assay, immobilised biotinyl-Ahx-[…]NH2; settings: relative to H-His-Ala-Lys-Arg-Arg-Leu-Ile-Phe-NH2 (=1)
Description: This was added to each well (100 μL). The plate was incubated for 1 h at room temperature with constant shaking. The plate was washed once quickly with TBS/BSA buffer (200 μL), followed by three more washes with TBS/BSA buffer (200 μL) for 5 min each. Serial dilutions of test peptides were prepared in a new plate (50 μL in each well). Cyclin A was diluted to 5 μg/50 μL with TBS/BSA buffer and this was then added to each well (50 μL). The solutions were mixed thoroughly with a pipette (5-6 times), before being incubated for 30 min at room temperature. This reaction mixture was then transferred to the biotinylated peptide: streptavidin-coated plate and incubated for 1 h at room temperature with constant shaking. The plate was washed once quickly with TBS/BSA buffer (200 μL), followed by three more washes with TBS/BSA buffer (200 μL) for 5 min each. The cyclin A antibody (Santa Cruz polyclonal) solution was diluted 1:200 with TBS/BSA buffer and this was then added to each well of the plate (100 μL. The plate was incubated for 1 h at room temperature with constant shaking. The plate was washed once quickly with TBS/BSA buffer (200 μl), followed by three more washes with TBS/BSA buffer (200 μL) for 5 min each. The anti-rabbit secondary antibody (goat anti-rabbit IgG peroxidase conjugate) was diluted 1:10,000 with TBS/BSA and this was then added to each well of the plate (100 μL). The plate was incubated for 1 h at room temperature with constant shaking. The plate was washed once quickly with TBS/BSA buffer (200 μL), followed by three more washes with TBS/BSA buffer (200 μL) for 5 min each. To each well was added the TMB-ELISA reagent (Pierce 1-Step™ Turbo TMB-ELISA; 100 μL) and the plate incubated for 1 min with constant shaking. The reaction was then quenched by the addition of 2 M aqueous H2SO4 (100 μL, each well). The UV absorbance of the each solution was measured spectrophotometrically at 450 nm. IC50 values were calculated from dose-response curves.

CDK2/cyclin A = CDK2/cyclin A (Homo sapiens, UniProt P20248); experiment: CDK2/cyclin A kinase assay, substrate pRb(773-928); format: biochemical; settings: relative to H-His-Ala-Lys-Arg-Arg-Leu-Ile-Phe-NH2 (=1), pRb substrate, [ATP] = 100 μM
From the text: Reactions were stopped on ice, followed by filtration through p81 filterplates (Whatman Polyfiltronics, Kent, UK).

Sequence of Cyclin A (P20248 whole entry): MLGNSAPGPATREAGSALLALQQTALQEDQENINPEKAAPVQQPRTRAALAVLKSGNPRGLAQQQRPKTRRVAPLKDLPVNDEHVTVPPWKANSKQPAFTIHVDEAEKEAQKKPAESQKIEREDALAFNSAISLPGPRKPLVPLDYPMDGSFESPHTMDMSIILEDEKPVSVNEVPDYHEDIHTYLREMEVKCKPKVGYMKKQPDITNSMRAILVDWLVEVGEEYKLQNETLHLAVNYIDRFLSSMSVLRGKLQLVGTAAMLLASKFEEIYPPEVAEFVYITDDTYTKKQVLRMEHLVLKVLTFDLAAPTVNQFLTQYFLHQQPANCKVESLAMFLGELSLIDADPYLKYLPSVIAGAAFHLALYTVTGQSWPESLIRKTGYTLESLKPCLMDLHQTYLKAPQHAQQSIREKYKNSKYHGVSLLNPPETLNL

Relative activity Cyclin A Binding (Cyclin A; Phe159 substitutions): 0.8
Relative activity Kinase Inhibition (CDK2/cyclin A; Phe159 substitutions): 0.8
Substance: H-His-Ala-Lys-Arg-Arg-Leu-Ile-mFPhe-NH2 (H-HAKRRLI[Phe(3-F)]-NH2; SMILES CC[C@H](C)[C@H](NC(=O)[C@H](CC(C)C)NC(=O)[C@H](CCCNC(=N)N)NC(=O)[C@H](CCCNC(=N)N)NC(=O)[C@H](CCCCN)NC(=O)[C@H](C)NC(=O)[C@@H](N)Cc1c[nH]cn1)C(=O)N[C@@H](Cc1cccc(F)c1)C(N)=O)

Substance: H-His-Ala-Lys-Arg-Arg-Leu-Ile-pFPhe-NH2 (H-HAKRRLI[Phe(4-F)]-NH2; SMILES CC[C@H](C)[C@H](NC(=O)[C@H](CC(C)C)NC(=O)[C@H](CCCNC(=N)N)NC(=O)[C@H](CCCNC(=N)N)NC(=O)[C@H](CCCCN)NC(=O)[C@H](C)NC(=O)[C@@H](N)Cc1c[nH]cn1)C(=O)N[C@@H](Cc1ccc(F)cc1)C(N)=O)
Relative activity Cyclin A Binding (Cyclin A; Phe159 substitutions): 5
Relative activity Kinase Inhibition (CDK2/cyclin A; Phe159 substitutions): 1

Relative activity Cyclin A Binding (Cyclin A; Ile158 substitutions): 0.3
Relative activity Kinase Inhibition (CDK2/cyclin A; Ile158 substitutions): 0.4
Substance: H-His-Ala-Lys-Arg-Arg-Leu-Nle Phe-NH2 (H-HAKRRL[Nle]F-NH2; SMILES CCCC[C@H](NC(=O)[C@H](CC(C)C)NC(=O)[C@H](CCCNC(=N)N)NC(=O)[C@H](CCCNC(=N)N)NC(=O)[C@H](CCCCN)NC(=O)[C@H](C)NC(=O)[C@@H](N)Cc1c[nH]cn1)C(=O)N[C@@H](Cc1ccccc1)C(N)=O)

Relative activity Cyclin A Binding (Cyclin A; Ile158 substitutions): 0.6
Relative activity Kinase Inhibition (CDK2/cyclin A; Ile158 substitutions): 0.2
Substance: H-His-Ala-Lys-Arg-Arg-Leu-Nva Phe-NH2 (H-HAKRRL[Nva]F-NH2; SMILES CCC[C@H](NC(=O)[C@H](CC(C)C)NC(=O)[C@H](CCCNC(=N)N)NC(=O)[C@H](CCCNC(=N)N)NC(=O)[C@H](CCCCN)NC(=O)[C@H](C)NC(=O)[C@@H](N)Cc1c[nH]cn1)C(=O)N[C@@H](Cc1ccccc1)C(N)=O)

Relative activity Cyclin A Binding (Cyclin A; Leu157 substitutions): <0.1
Relative activity Kinase Inhibition (CDK2/cyclin A; Leu157 substitutions): <0.1
Substance: H-His-Ala-Lys-Arg-Arg-Nle-Ile Phe-NH2 (H-HAKRR[Nle]IF-NH2; SMILES CCCC[C@H](NC(=O)[C@H](CCCNC(=N)N)NC(=O)[C@H](CCCNC(=N)N)NC(=O)[C@H](CCCCN)NC(=O)[C@H](C)NC(=O)[C@@H](N)Cc1c[nH]cn1)C(=O)N[C@H](C(=O)N[C@@H](Cc1ccccc1)C(N)=O)[C@@H](C)CC)

Relative activity Cyclin A Binding (Cyclin A; Leu157 substitutions): <0.1
Relative activity Kinase Inhibition (CDK2/cyclin A; Leu157 substitutions): <0.1
Substance: H-His-Ala-Lys-Arg-Arg-Nva-Ile Phe-NH2 (H-HAKRR[Nva]IF-NH2; SMILES CCC[C@H](NC(=O)[C@H](CCCNC(=N)N)NC(=O)[C@H](CCCNC(=N)N)NC(=O)[C@H](CCCCN)NC(=O)[C@H](C)NC(=O)[C@@H](N)Cc1c[nH]cn1)C(=O)N[C@H](C(=O)N[C@@H](Cc1ccccc1)C(N)=O)[C@@H](C)CC)

Relative activity Cyclin A Binding (Cyclin A; Leu157 substitutions): <0.1
Relative activity Kinase Inhibition (CDK2/cyclin A; Leu157 substitutions): <0.1
Substance: H-His-Ala-Lys-Arg-Arg-Phe-Ile Phe-NH2 (H-HAKRRFIF-NH2)

Relative activity Cyclin A Binding (Cyclin A; Leu157 substitutions): <0.1
Relative activity Kinase Inhibition (CDK2/cyclin A; Leu157 substitutions): <0.1
Substance: H-His-Ala-Lys-Arg-Arg-Val-Ile Phe-NH2 (H-HAKRRVIF-NH2)

Relative activity Cyclin A Binding (Cyclin A; Arg156 substitutions): <0.1
Relative activity Kinase Inhibition (CDK2/cyclin A; Arg156 substitutions): <0.1
Substance: H-His-Ala-Lys-Arg-Asn-Leu-Ile Phe-NH2 (H-HAKRNLIF-NH2)

Relative activity Cyclin A Binding (Cyclin A; Arg156 substitutions): 0.2
Relative activity Kinase Inhibition (CDK2/cyclin A; Arg156 substitutions): 0.7
Substance: H-His-Ala-Lys-Arg-Ser-Leu-Ile Phe-NH2 (H-HAKRSLIF-NH2)

Relative activity Cyclin A Binding (Cyclin A; Arg155 substitutions): <0.1
Relative activity Kinase Inhibition (CDK2/cyclin A; Arg155 substitutions): <0.1
Substance: H-His-Ala-Lys-Gln-Arg-Leu-Ile Phe-NH2 (H-HAKQRLIF-NH2)

Relative activity Cyclin A Binding (Cyclin A; Arg155 substitutions): 0.1
Relative activity Kinase Inhibition (CDK2/cyclin A; Arg155 substitutions): 0.8
Substance: H-His-Ala-Lys-Lys-Arg-Leu-Ile Phe-NH2 (H-HAKKRLIF-NH2)

Relative activity Cyclin A Binding (Cyclin A; Arg155 substitutions): <0.1
Relative activity Kinase Inhibition (CDK2/cyclin A; Arg155 substitutions): <0.1
Substance: H-His-Ala-Lys-Nle-Arg-Leu-Ile Phe-NH2 (H-HAKHRLIF-NH2; not fully specified (residue 4); printed as H-His-Ala-Lys-Nle-Arg-Leu-Ile Phe-NH2)

Relative activity Cyclin A Binding (Cyclin A; Lys154 substitutions): 0.2
Relative activity Kinase Inhibition (CDK2/cyclin A; Lys154 substitutions): 03
Substance: H-His-Ala-Nle-Arg-Arg-Leu-Ile Phe-NH2 (H-HA[Nle]RRLIF-NH2; SMILES CCCC[C@H](NC(=O)[C@H](C)NC(=O)[C@@H](N)Cc1c[nH]cn1)C(=O)N[C@@H](CCCNC(=N)N)C(=O)N[C@@H](CCCNC(=N)N)C(=O)N[C@@H](CC(C)C)C(=O)N[C@H](C(=O)N[C@@H](Cc1ccccc1)C(N)=O)[C@@H](C)CC)

Relative activity Cyclin A Binding (Cyclin A; Ala153 substitutions): 1.2
Relative activity Kinase Inhibition (CDK2/cyclin A; Ala153 substitutions): 0.2
Substance: H-His-Bug-Lys-Arg-Arg-Leu-Ile Phe-NH2 (H-H[Tle]KRRLIF-NH2; SMILES CC[C@H](C)[C@H](NC(=O)[C@H](CC(C)C)NC(=O)[C@H](CCCNC(=N)N)NC(=O)[C@H](CCCNC(=N)N)NC(=O)[C@H](CCCCN)NC(=O)[C@@H](NC(=O)[C@@H](N)Cc1c[nH]cn1)C(C)(C)C)C(=O)N[C@@H](Cc1ccccc1)C(N)=O)

Relative activity Cyclin A Binding (Cyclin A; Ala153 substitutions): 0.1
Relative activity Kinase Inhibition (CDK2/cyclin A; Ala153 substitutions): 0.1
Substance: H-His-Gly-Lys-Arg-Arg-Leu-Ile Phe-NH2 (H-HGKRRLIF-NH2)

Relative activity Cyclin A Binding (Cyclin A; Ala153 substitutions): 0.2
Relative activity Kinase Inhibition (CDK2/cyclin A; Ala153 substitutions): 0.5
Substance: H-His-Ile-Lys-Arg-Arg-Leu-Ile Phe-NH2 (H-HIKRRLIF-NH2)

Relative activity Cyclin A Binding (Cyclin A; Ala153 substitutions): <0.1
Relative activity Kinase Inhibition (CDK2/cyclin A; Ala153 substitutions): <0.1
Substance: H-His-Nva-Lys-Arg-Arg.Leu-Ile Phe.NH2 (H-H[Nva]KRRLIF-NH2; SMILES CCC[C@H](NC(=O)[C@@H](N)Cc1c[nH]cn1)C(=O)N[C@@H](CCCCN)C(=O)N[C@@H](CCCNC(=N)N)C(=O)N[C@@H](CCCNC(=N)N)C(=O)N[C@@H](CC(C)C)C(=O)N[C@H](C(=O)N[C@@H](Cc1ccccc1)C(N)=O)[C@@H](C)CC)

Relative activity Cyclin A Binding (Cyclin A; Ala153 substitutions): 0.2
Relative activity Kinase Inhibition (CDK2/cyclin A; Ala153 substitutions): 0.5
Substance: H-His-Phe-Lys-Arg-Arg-Leu-Ile Phe-NH2 (H-HFKRRLIF-NH2)

Relative activity Cyclin A Binding (Cyclin A; Ala153 substitutions): <0.1
Relative activity Kinase Inhibition (CDK2/cyclin A; Ala153 substitutions): <0.1
Substance: H-His-Phg-Lys-Arg-Arg-Leu-Ile Phe-NH2 (H-H[Phg]KRRLIF-NH2; not fully specified; printed as H-His-Phg-Lys-Arg-Arg-Leu-Ile Phe-NH2)

Relative activity Cyclin A Binding (Cyclin A; Ala153 substitutions): 1.7
Relative activity Kinase Inhibition (CDK2/cyclin A; Ala153 substitutions): 2
Substance: H-His-Val-Lys-Arg-Arg-Leu-Ile Phe-NH2 (H-HVKRRLIF-NH2)

Relative activity Cyclin A Binding (Cyclin A; His152 substitutions): 2
Relative activity Kinase Inhibition (CDK2/cyclin A; His152 substitutions): 2
Substance: H-Hse-Ala-Lys-Arg-Arg-Leu-Ile Phe-NH2 (XAKRRLIF; N-terminal Hse, C-terminal amide)

Relative activity Cyclin A Binding (Cyclin A; His152 substitutions): 1
Relative activity Kinase Inhibition (CDK2/cyclin A; His152 substitutions): 3
Substance: H-Phe-Ala-Lys-Arg-Arg-Leu.Ile Phe-NH2 (H-FAKRRLIF-NH2)

Relative activity Cyclin A Binding (Cyclin A; His152 substitutions): 0.2
Relative activity Kinase Inhibition (CDK2/cyclin A; His152 substitutions): <0.1
Substance: H-Pya-Ala-Lys-Arg-Arg-Leu-Ile Phe-NH2 (XAKRRLIF; N-terminal Pya, C-terminal amide)

Relative activity Cyclin A Binding (Cyclin A; His152 substitutions): 0.2
Relative activity Kinase Inhibition (CDK2/cyclin A; His152 substitutions): 2
Substance: H-Thi-Ala-Lys-Arg-Arg-Leu-Ile Phe-NH2 (XAKRRLIF; N-terminal Thi, C-terminal amide)

Relative activity Cyclin A Binding (Cyclin A; Ile158 substitutions): 0.8
Relative activity Kinase Inhibition (CDK2/cyclin A; Ile158 substitutions): 0.3
Substance: HAKRRLAF-NH2

Source: patent US20050153894A1, “p21 peptides” (Cyclacel Limited, priority 1999, published 2005)
